Experimental data as given in CN113683697A (SHANGHAI XIANGYAO BIOTECHNOLOGY CO LTD, dated 2021).

T1: 人B7-H3变体1(4Ig-B7-H3) on stable cells 293-h4Ig-B7-H3-copGFP (human, UniProt Q5ZPR3 29-534)
T1 construct: Full-length CDS cloned in pCDH-EF1-T2A-copGFP and expressed on stably transduced cells; residues left by T2A cleavage not described
T1 sequence: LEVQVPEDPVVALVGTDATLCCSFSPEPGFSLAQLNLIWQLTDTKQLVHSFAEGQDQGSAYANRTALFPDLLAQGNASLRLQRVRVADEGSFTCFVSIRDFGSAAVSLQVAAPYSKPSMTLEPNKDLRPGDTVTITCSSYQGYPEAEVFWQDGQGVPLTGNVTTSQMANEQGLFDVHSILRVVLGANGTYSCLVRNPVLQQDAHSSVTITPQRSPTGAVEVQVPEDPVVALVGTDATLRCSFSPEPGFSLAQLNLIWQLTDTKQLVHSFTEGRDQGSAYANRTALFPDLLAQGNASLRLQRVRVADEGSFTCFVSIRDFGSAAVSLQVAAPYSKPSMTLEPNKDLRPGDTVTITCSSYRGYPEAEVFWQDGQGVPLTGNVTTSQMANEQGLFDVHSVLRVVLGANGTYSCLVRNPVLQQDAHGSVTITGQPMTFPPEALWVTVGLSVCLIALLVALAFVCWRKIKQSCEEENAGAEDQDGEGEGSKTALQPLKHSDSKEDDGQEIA

T2: B7-H3 (4Ig-B7-H3) endogenously expressed on MDA-MB-231 cells (UniProt Q5ZPR3 29-534, limits assumed)
T2 construct: whole, on cells; also called 细胞表面的B7-H3抗原
T2 sequence (looked up): T1 sequence

B1: scFv-27B4-H5-L5 (scFv)
scFv: QVQLVESGGGVVQPGRSLRLSCKASGYTFTTYWMHWVRQAPGKGLEWVAVIYPGDGGSYYTDSVKGRFTISRDNSKNTLYLQMNSLRAEDTAVYYCARGGNYISFPMYYWGQGTLVTVSSGGGGSGGGGSGGGGSGGGGASDIVMTQTPLSLSVTPGQPASISCKASRGVSTALYWYLQKPGQPPQLLIYWASNRFSGVPDRFSGSGSGTDFTLKISRVEAEDVGVYYCQQHYDTPYTFGQGTKLEIK
notes: VH-linker-VL in phage display vector pXY, expressed in TG1, purified on a nickel column
B2: h27B4-H4-L3 (antibody, human IgG1, kappa, V domains shown)
VH: EVQLVQSGAEVKKPGESLKISCKASGYTFTTYWIGWVRQMPGKGLEWMGIIYPGDGGSRYSPSFQGQVTISADKSISTAYLQWSSLKASDTAMYYCARGGNYISFPMYYWGQGTLVTVSS
VL: EIVMTQSPATLSVSPGERATLSCKASRGVSTALAWYQQKPGQAPRLLIYWASTRATGIPARFSGSGSGTEFTLTISSLQSEDFAVYYCQQHYDTPYTFGQGTKLEIKR
notes: Whole IgG, humanized; optimized hIgG1 (L235V, F243L, R292P, Y300L, P396L) and human kappa; also called zw.M0883B9.27B4Z02; 27B4Z02分子
B3: scFv-27B4-H5-L4 (scFv)
scFv: QVQLVESGGGVVQPGRSLRLSCKASGYTFTTYWMHWVRQAPGKGLEWVAVIYPGDGGSYYTDSVKGRFTISRDNSKNTLYLQMNSLRAEDTAVYYCARGGNYISFPMYYWGQGTLVTVSSGGGGSGGGGSGGGGSGGGGASEIVLTQSPDFQSVTPKEKVTITCKASRGVSTALHWYQQKPDQSPKLLIKWASQSFSGVPSRFSGSGSGTDFTLTINSLEAEDAATYYCQQHYDTPYTFGQGTKLEIK
notes: as for B1
B4: h27B4-H2-L2 (antibody, human IgG1, kappa, V domains shown)
VH: QVQLVQSGAEVKKPGSSVKVSCKASGYTFTTYWISWVRQAPGQGLEWMGGIYPGDGGSNYAQKFQGRVTITADESTSTAYMELSSLRSEDTAVYYCARGGNYISFPMYYWGQGTLVTVSS
VL: VIWMTQSPSLLSASTGDRVTISCKASRGVSTALAWYQQKPGKAPELLIYWASTLQSGVPSRFSGSGSGTDFTLTISCLQSEDFATYYCQQHYDTPYTFGQGTKLEIKR
notes: Whole IgG, humanized; optimized hIgG1 (L235V, F243L, R292P, Y300L, P396L) and human kappa; also called zw.M0883B9.27B4Z01
B5: h27B4-H2-L3 (antibody, human IgG1, kappa, V domains shown)
VH: B4 VH
VL: B2 VL
notes: Whole IgG, humanized; optimized hIgG1 (L235V, F243L, R292P, Y300L, P396L) and human kappa; also called zw.M0883B9.27B4Z03
B6: h27B4-H4-L2 (antibody, human IgG1, kappa, V domains shown)
VH: B2 VH
VL: B4 VL
notes: Whole IgG, humanized; optimized hIgG1 (L235V, F243L, R292P, Y300L, P396L) and human kappa; also called zw.M0883B9.27B4Z04
B7: scFv-27B4-H5-L3 (scFv)
scFv: QVQLVESGGGVVQPGRSLRLSCKASGYTFTTYWMHWVRQAPGKGLEWVAVIYPGDGGSYYTDSVKGRFTISRDNSKNTLYLQMNSLRAEDTAVYYCARGGNYISFPMYYWGQGTLVTVSSGGGGSGGGGSGGGGSGGGGASEIVMTQSPATLSVSPGERATLSCKASRGVSTALAWYQQKPGQAPRLLIYWASTRATGIPARFSGSGSGTEFTLTISSLQSEDFAVYYCQQHYDTPYTFGQGTKLEIK
notes: as for B1
B8: scFv-27B4-H5-L2 (scFv)
scFv: QVQLVESGGGVVQPGRSLRLSCKASGYTFTTYWMHWVRQAPGKGLEWVAVIYPGDGGSYYTDSVKGRFTISRDNSKNTLYLQMNSLRAEDTAVYYCARGGNYISFPMYYWGQGTLVTVSSGGGGSGGGGSGGGGSGGGGASVIWMTQSPSLLSASTGDRVTISCKASRGVSTALAWYQQKPGKAPELLIYWASTLQSGVPSRFSGSGSGTDFTLTISCLQSEDFATYYCQQHYDTPYTFGQGTKLEIK
notes: as for B1
B9: MGA-271 (NCT02475213) (antibody, V domains shown)
VH: EVQLVESGGGLVQPGGSLRLSCAASGFTFSSFGMHWVRQAPGKGLEWVAYISSDSSAIYYADTVKGRFTISRDNAKNSLYLQMNSLRDEDTAVYYCGRGRENIYYGSRLDYWGQGTTVTVSS
VL: DIQLTQSPSFLSASVGDRVTITCKASQNVDTNVAWYQQKPGKAPKALIYSASYRYSGVPSRFSGSGSGTDFTLTISSLQPEDFATYYCQQYNNYPFTFGQGTKLEIK
B10: 嵌合抗体xw.M0883B9.27B4 (antibody, human IgG1, kappa, V domains shown)
VH: QVQLQQSGAELARPGASVKLSCKASGYTFTTYWMQWIQQRPGQGLEWIGAIYPGDGGSRYTQRFKGKATMTADPSSSTVYMQLTSLASEDSAVYFCARGGNYISFPMYYWGQGTSVTVSP
VL: DIVMTQSHKFMSTSVGDRVSITCKASRGVSTAVAWYQQKPGQSPKLLIYWASTRHTGVPDRFTGSGSGTDYTLTISSVQAEDLALYYCQQHYDTPYTFGGGTKLEIQR
notes: also called 嵌合抗体27B4; 27B4嵌合抗体

biological target: T1, 人B7-H3变体1(4Ig-B7-H3) on stable cells …; assay: FACS, 293-h4Ig-B7-H3-copGFP stable cells

| Binder | binding result |
| --- | --- |
| B1 | binds |
| B2 | binds |
| B3 | binds |
| B4 | binds |
| B5 | binds |
| B6 | binds |
| B7 | binds |
| B8 | binds |

biological target: T2, B7-H3 (4Ig-B7-H3) endogenously …; assay: FACS titration on MDA-MB-231 cells

| Binder | EC50 |
| --- | --- |
| B9 | 23.8 µg/mL |
| B10 | 3.2 µg/mL |

biological target: T2, B7-H3 (4Ig-B7-H3) endogenously …; assay: FACS, MDA-MB-231 cells

| Binder | binding result |
| --- | --- |
| B1 | binds |
| B2 | binds |
| B3 | binds |
| B4 | binds |
| B5 | binds |
| B6 | binds |
| B7 | binds |
| B8 | binds |
